According to paper PMC9581978, “The iron-sulfur cluster is essential for DNA binding by human DNA polymerase ε”:

B1: Octet 23-mer template / 11-mer 3'-ddC primer (dsDNA)
DNA 1: AATACATAAGCGCTCCAGGCAAT
DNA 2: GCCTGGAGCGC
modifications: 3'-dideoxycytidine on primer (strand 2)

Columns and labels:
[1] = molecular target: hPolεCDM (C654S/C663S), [4Fe-4S]-deficient (human, UniProt Q07864 28-1194, C654S;C663S); assay: EMSA; no mobility effect at 4-fold molar excess over DNA; EMSA: 20 mM Tris-Hepes pH 7.8, 100 mM NaCl, 2% glycerol, 2 mM TCEP, 0.2 mg/mL BSA, 0.5 uM DNA, 5 min room temperature; BLI: 30 mM Tris-Hepes pH 7.8, 100 or 150; conditions: protein: recombinant; tags: N-terminal His-Sumo, His-tag digested during purification; label: 5'-Cy3; single strand
[2] = molecular target: hPolεCD (insect), catalytic domain of DNA polymerase ε p261, iron-poor (7.3% iron) (human, UniProt Q07864 28-1194); assay: BLI; 100 mM NaCl; active enzyme concentration; kon 162 mM-1 s-1, koff 34.2e-3 s-1; EMSA: 20 mM Tris-Hepes pH 7.8, 100 mM NaCl, 2% glycerol, 2 mM TCEP, 0.2 mg/mL BSA, 0.5 uM DNA, 5 min room temperature; BLI: 30 mM Tris-Hepes pH 7.8, 100 or 150; conditions: protein: recombinant; tags: cleavable N-terminal His-Tev, digested during purification; label: 5'-biotin-TEG on template (strand 1); template 5' overhang 9 nt, 3' overhang 3 nt; primer annealed at 2-fold excess
[3] = molecular target: hPolεCD (E. coli), catalytic domain of DNA polymerase ε p261, CysX [4Fe-4S] cluster (63% iron) (human, UniProt Q07864 28-1194); assay: BLI; 100 mM NaCl; active enzyme concentration; kon 252 mM-1 s-1, koff 41.9e-3 s-1; EMSA: 20 mM Tris-Hepes pH 7.8, 100 mM NaCl, 2% glycerol, 2 mM TCEP, 0.2 mg/mL BSA, 0.5 uM DNA, 5 min room temperature; BLI: 30 mM Tris-Hepes pH 7.8, 100 or 150; conditions: protein: recombinant; tags: N-terminal His-Sumo, His-tag digested during purification; label: 5'-biotin-TEG on template (strand 1); template 5' overhang 9 nt, 3' overhang 3 nt; primer annealed at 2-fold excess
Sequence of hPolεCD (E. coli), catalytic domain of DNA polymerase ε p261, CysX [4Fe-4S] cluster (63% iron) (Q07864 28-1194): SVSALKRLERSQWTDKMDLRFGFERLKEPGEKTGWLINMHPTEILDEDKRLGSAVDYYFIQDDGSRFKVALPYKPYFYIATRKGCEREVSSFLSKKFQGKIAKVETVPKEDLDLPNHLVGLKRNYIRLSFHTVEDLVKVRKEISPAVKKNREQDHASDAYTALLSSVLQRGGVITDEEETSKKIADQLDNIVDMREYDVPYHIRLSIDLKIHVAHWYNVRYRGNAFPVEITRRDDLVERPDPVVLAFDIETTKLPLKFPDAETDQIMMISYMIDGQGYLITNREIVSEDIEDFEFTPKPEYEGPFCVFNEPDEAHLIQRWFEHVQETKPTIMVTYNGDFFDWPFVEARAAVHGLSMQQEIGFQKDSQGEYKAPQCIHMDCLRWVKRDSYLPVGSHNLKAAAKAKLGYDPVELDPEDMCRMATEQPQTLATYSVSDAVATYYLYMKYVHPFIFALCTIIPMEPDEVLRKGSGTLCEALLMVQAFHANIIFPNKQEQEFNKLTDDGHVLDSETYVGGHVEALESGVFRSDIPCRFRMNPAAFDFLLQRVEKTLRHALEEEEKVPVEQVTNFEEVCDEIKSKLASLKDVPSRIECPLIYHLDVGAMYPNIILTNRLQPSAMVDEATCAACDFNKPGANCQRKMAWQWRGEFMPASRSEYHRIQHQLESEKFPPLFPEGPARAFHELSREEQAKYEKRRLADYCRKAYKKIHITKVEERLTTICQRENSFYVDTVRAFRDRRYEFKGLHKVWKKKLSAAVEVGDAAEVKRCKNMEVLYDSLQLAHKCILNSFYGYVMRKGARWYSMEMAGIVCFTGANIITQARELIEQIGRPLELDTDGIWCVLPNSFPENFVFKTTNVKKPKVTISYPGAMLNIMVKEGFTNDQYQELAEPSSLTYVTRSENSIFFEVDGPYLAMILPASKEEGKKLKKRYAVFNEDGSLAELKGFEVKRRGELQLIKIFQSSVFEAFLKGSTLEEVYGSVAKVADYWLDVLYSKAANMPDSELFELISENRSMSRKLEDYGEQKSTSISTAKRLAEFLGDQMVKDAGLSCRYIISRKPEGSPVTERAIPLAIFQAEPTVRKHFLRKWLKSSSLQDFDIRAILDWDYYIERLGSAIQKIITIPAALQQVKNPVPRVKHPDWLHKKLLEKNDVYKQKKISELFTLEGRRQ

Sequence of hPolεCDM (C654S/C663S), [4Fe-4S]-deficient (Q07864 28-1194 C654S/C663S): as the sequence (Q07864 28-1194) above, with C627S, C636S counted along it
Sequence of hPolεCD (insect), catalytic domain of DNA polymerase ε p261, iron-poor (7.3% iron) (Q07864 28-1194): as the sequence (Q07864 28-1194) above

| Binder | binding result [1] | Kd [2] [nM] | Kd [3] [nM] |
| --- | --- | --- | --- |
| GGACTCCGAGCTGCC (ssDNA) [15-mer Cy3 primer alone] | no binding |  |  |
| B1 |  | 213 ± 43 | 167 ± 24 |
